Experimental data from US20230340106A1 (published 2023).

What was measured:
[1] = target: T1, human IL-2 (recombinant IL-2, Humanzyme) (human, UniProt P60568 21-153); assay: SPR (Biacore T200), IgG captured by anti-human IgG, IL-2 injected, 25 C, 1:1 Langmuir fit
T1 construct: It may include the signal peptide; also called hIL-2; interleukin-2
Method: (§1) Experiments were performed at 25° C. using a 30 μL/minute flow rate in 0.01 M HEPES pH 7.4, 0.15 M NaCl and 0.005% v/v surfactant P20 (HBS-P) buffer. After each cycle, the chip surface was regenerated with 3 M MgCl₂ and new antibody captured. […] Data were analyzed using the Biacore T200 Evaluation software, the signal from the adjacent control flow cell with only the capture antibody immobilized was background subtracted along with buffer only injections for each antibody. A 1:1 Langmuir binding model was used to fit all binding curves.

[2] = target: T1, human IL-2 (recombinant IL-2, Humanzyme); assay: SPR as in Example 1 (value as in Table 3)
Method: as §1

[3] = target: T2, recombinant cynomolgus monkey (Macaca fascicularis) IL-2 (cynomolgus monkey (Macaca fascicularis), UniProt Q29615 21-154); assay: SPR, IgG captured, cyno IL-2 1-100 nM; concentration-response insufficient to calculate the affinity
T2 construct: also called cyno IL-2; cynomolgus monkey IL-2
T2 sequence (Q29615 21-154 limits assumed): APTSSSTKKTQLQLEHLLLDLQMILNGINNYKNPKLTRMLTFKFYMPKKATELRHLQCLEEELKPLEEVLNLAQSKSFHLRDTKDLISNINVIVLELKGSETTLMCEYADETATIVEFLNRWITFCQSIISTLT
Method: as §1
(§2) A 1:1 Langmuir binding model was used to fit binding curves or the steady-state affinity constant calculated from a concentration-response curve.

[4] = target: T1, human IL-2 (recombinant IL-2, Humanzyme); assay: SPR as in Example 1 (IgG captured, IL-2 injected)
Method: as §1

[5] = target: T2, recombinant cynomolgus monkey (Macaca …); assay: SPR, IgG captured, cyno IL-2 1-100 nM; 1:1 Langmuir fit or steady-state affinity
Method: as §1, §2

[6] = target: T1, human IL-2 (recombinant IL-2, Humanzyme); assay: SPR as in Example 1; reference is parental F5.1.11
Method: as §1

[7] = target: T1, human IL-2 (recombinant IL-2, Humanzyme); assay: SPR as in Example 1 (value as in Table 4)
Method: as §1

[8] = target: T1, human IL-2 (recombinant IL-2, Humanzyme); assay: method not stated in the sentence (presumably SPR as in Example 1)
[9] = target: IL-2/F5.1.11 Fab complex (human, UniProt P60568 21-153); assay: SPR (Biacore T200), equilibrium analysis, 1-500 nM IL-2 pre-complexed with excess Fab over biotinylated IL-2Rα
Sequence of IL-2/F5.1.11 Fab complex (P60568 21-153 limits assumed, one chain of several): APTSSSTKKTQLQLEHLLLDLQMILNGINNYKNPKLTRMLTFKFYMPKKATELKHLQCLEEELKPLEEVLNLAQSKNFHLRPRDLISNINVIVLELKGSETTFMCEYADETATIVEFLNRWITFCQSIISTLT
Method: Experiments were performed at 25° C. using a 10 μL/minute flow rate in 10 mM HEPES (pH7.4), 150 mM NaCl and 0.005% v/v Surfactant P20 buffer. […] Data was background subtracted using the adjacent control flow cell and buffer only injections. The affinity of the interaction was calculated from concentration-response relationship at equilibrium.

[10] = target: T3, d1C7/IL-2 complex (human, UniProt P60568 21-153); assay: SPR (Biacore T200), complex injected over biotinylated receptor on a streptavidin chip
T3 construct: also called clone d1C7/IL-2 complex
T3 sequence (P60568 21-153 limits assumed, one chain of several): as above
Method: Experiments were performed at 25° C. using a 10 μL/minute flow rate in 10 mM HEPES (pH 7.4), 150 mM NaCl and 0.005% v/v Surfactant P20 buffer. […] Data was background subtracted using the adjacent control flow cell and buffer only injections.

T1 sequence (P60568 21-153 limits assumed): as the sequence (P60568 21-153 limits assumed, one chain of several) above

B1: F5.1.11 (antibody, V domains shown)
VH: QLQLQESGPGLVKPSQTLSLTCTVSGGSISSGGYYWSWIRQHPGKGLEWIGYIYYSGSTYYNPSLKSRVTISVDTSKNQFSLKLSSVTAADTAVYYCARTPTVTGDWFDPWGRGTLVTVSS
VL: NFMLTQPHSVSESPGKTVTISCTRSSGSIASNYVQWYQQRPGSSPTTVIYEDNQRPSGVPDRFSGSIDSSSNSASLTISGLKTEDEADYYCQSYDSSNVVFGGGTKLTVL
- Kd [1]: 3.12 nM
- koff [1]: 0.00688 s⁻¹
- kon [1]: 2.21e+06 M⁻¹ s⁻¹
- Kd [2]: 3.12 nM
- binding result [3]: binds
- Kd [4]: 1.88 nM
- koff [4]: 0.00711 s⁻¹
- kon [4]: 3.78e+06 M⁻¹ s⁻¹

B2: F5.1.11.02 (antibody, V domains shown)
VH: QLQLQESGPGLVKPSQTLSLTCTVSGGSISSGGYYWSWIRQHPGKGLEWIGYIYKSGSAYYSPSLKSRVTISVDTSKNQFSLKLSSVTAADTAVYYCARTPTVTGDWFDPWGRGTLVTVSS
VL: NFMLTQPHSVSESPGKTVTISCTRSSGSIASNYVQWYQQRPGSSPTTVIYEDNQRPSGVPDRFSGSIDSSSNSASLTISGLKTEDEADYYCQTYDSIDVYFGGGTKLTVL
notes: also called F5111.2; 5.1.11.2
- Kd [5]: ~211 nM
- fold increase of apparent binding affinity over parental F5.1.11 [6]: 16 fold
- Kd [7]: 0.114 nM
- Kd [4]: 0.114 nM
- koff [4]: 0.000574 s⁻¹
- kon [4]: 5.05e+06 M⁻¹ s⁻¹

B3: F5.1.11.08 (antibody, V domains shown)
VH: QLQLQESGPGLVKPSQTLSLTCTVSGGSISSGGYYWSWIRQHPGKGLEWIGYIYKSGSNYWNPSLKSRVTISVDTSKNQFSLKLSSVTAADTAVYYCARTPTVTGDWFDPWGRGTLVTVSS
VL: NFMLTQPHSVSESPGKTVTISCTRSSGSIASNYVQWYQQRPGSSPTTVIYEDNQRPSGVPDRFSGSIDSSSNSASLTISGLKTEDEADYYCQTYDSIDVYFGGGTKLTVL
- Kd [4]: 0.205 nM
- koff [4]: 0.000453 s⁻¹
- kon [4]: 2.21e+06 M⁻¹ s⁻¹

B4: F4.7.6 (antibody, V domains shown)
VH: EVQLQESGPGLVKPSQTLSLTCTVSGGSISSGGYYWSWIRQHPGKGLEWIGYIYYSGSTYYNPSLKSRVTISVDTSKNQFSLKLSSVTAADTAVYYCARTPTVTGDWFDPWGQGTLVTVSS
VL: NFMLTQPHSVSESPGKTVTISCTRSSGSIASNYVQWYQQRPGSSPTTVIYEDNQRPSGVPDRFSGSIDSSSNSASLTISGLKTEDEADYYCQSYDSSTVVFGGGTKLTVL
- Kd [1]: 3.03 nM
- koff [1]: 0.00738 s⁻¹
- kon [1]: 2.44e+06 M⁻¹ s⁻¹

B5: F5.1.11.04 (antibody, V domains shown)
VH: QLQLQESGPGLVKPSQTLSLTCTVSGGSISSGGYYWSWIRQHPGKGLEWIGYIYYSGSNYWNPSLKSRVTISVDTSKNQFSLKLSSVTAADTAVYYCARTPTVTGDWFDPWGRGTLVTVSS
VL: NFMLTQPHSVSESPGKTVTISCTRSSGSIASNYVQWYQQRPGSSPTTVIYEDNQRPSGVPDRFSGSIDSSSNSASLTISGLKTEDEADYYCQSYDTRDVVFGGGTKLTVL
- Kd [4]: 0.624 nM
- koff [4]: 0.000458 s⁻¹
- kon [4]: 734000 M⁻¹ s⁻¹

B6: F5.1.9.5 (antibody, V domains shown)
VH: EVQLVESGPGLVKPSETLSLTCAVSGYSISSGYYWGWIRQPPGKGLEWIGLSYHTRSTYYDPSLKSRVTISVDTSKNQFSLKLSSVTAADTAVYYCAREAYSDRAFDIWGQGTMVTVSS
VL: NFMLTQPHSVSESPGKTITISCTRSSGSIASDYVQWYQQRPGSSPSTVIYADNQRPSEVPDRFSGSIDSSSNSASLTISGLMTEDEADYYCQSYDSNIVIFGGGTKLTVL
- Kd [8]: 0.663 nM
- koff [8]: 0.000818 s⁻¹
- kon [8]: 1.23e+06 M⁻¹ s⁻¹

B7: F4.7.062 (antibody, V domains shown)
VH: QVQLQESGPGLVKPSQTLSLTCTVSGGSISSGGYYWSWIRQHPGKGLEWIGYIYYSGSTYYNPSLKSRVTISVDTSKNQFSLKLSSVTAADTAVYYCARTPTVTGDWFDPWGQGTLVTVSS
VL: NFMLTQPHSVSESPGKTVTISCTRSSGSIASNYVQWYQQRPGSSPTTVIYEDNQRPSGVPDRFSGSIDSSSNSASLTISGLKTEDEADYYCQSYDSSNVVFGGGTKLTVL
- Kd [1]: 1.54 nM
- koff [1]: 0.0058 s⁻¹
- kon [1]: 3.77e+06 M⁻¹ s⁻¹

B8: recombinant IL-2Rα (receptor, UniProt P01589 22-213, looked up)
chain: ELCDDDPPEIPHATFKAMAYKEGTMLNCECKRGFRRIKSGSLYMLCTGNSSHSSWDNQCQCTSSATRNTTKQVTPQPEEQKERKTTEMQSPMQPVDQASLPGHCREPPPWENEATERIYHFVVGQMVYYQCVQGYRALHRGPAESVCKMTHGKTRWTQPQLICTGEMETSQFPGEEKPQASPEGRPESETSC
modifications: biotin labeled
notes: also called IL-2α; CD25
- Kd [9]: 70.1 nM

B9: recombinant IL-2Rβ (receptor, UniProt P14784 27-239, looked up)
chain: AVNGTSQFTCFYNSRANISCVWSQDGALQDTSCQVHAWPDRRRWNQTCELLPVSQASWACNLILGAPDSQKLTTVDIVTLRVLCREGVRWRVMAIQDFKPFENLRLMAPISLQVVHVETHRCNISWEISQASHYFERHLEFEARTLSPGHTWEEAPLLTLKQKQEWICLETLTPDTQYEFQVRVKPLQGEFTTWSPWSQPLAFRTKPAALGKD
modifications: biotin labeled
notes: also called CD122; IL2Rb
- binding result [10]: no binding

B10: d1C7 (antibody, V domains shown)
VH: QVQLVQSGAEVKKPGSSVKVSCKASGGTFSSYAISWVRQAPGQGLEWMGGIIPIFGTANYAQKFQGRVTITADESTSTAYMELSSLRSEDTAVYYCARVDRYYNWNYFLGSFDYWGQGTLVTVSS
VL: SYVLTQPPSVSVAPGKTARITCGGNNIRSKSVHWYQQKPGQAPVVVIYYDSDRPSGIPERISGSNSGNTATLTISRVEAGDEADYFCQVWDSSSDHHVFGGGTKLTVL
notes: Only the variable domains are tied to the clone; also called clone d1C7
- Kd [1]: 0.536 nM
- koff [1]: 0.000607 s⁻¹
- kon [1]: 1.13e+06 M⁻¹ s⁻¹
- Kd [5]: ≥ 108 nM
- Kd [2]: 0.536 nM

B11: F4.7.8 (antibody, V domains shown)
VH: not shown
VL: AIQLTQSPSSLSASVGDRVTITCQASQDIFNLLNWYRQKPGKAPDLLVYRASNLETGVPSRFSGSGSGTDFTFTISSLQPEDVGTYYCQQSANLPLTFGGGTKVEIK
notes: Only the variable domains are tied to the clone
- Kd [1]: 13.4 nM
- koff [1]: 0.0031 s⁻¹
- kon [1]: 231000 M⁻¹ s⁻¹
- Kd [5]: 92.4 nM
- Kd [2]: 13.4 nM

B12: 16C3 (antibody, V domains shown)
VH: QVQLVQSGGGVVQPGRSLRLSCAASGFTFSNYAMNWVRQAPGKGLEWVTLISYDGSQKYYADSVKGRFTTSRDNSKNTLYLQMNSLRAEDTAVYYCARDSTTLGAFDVWGQGTMVTVSS
VL: SYELTQPPSLSVSPGQTATISCSGDAFPRKFAYWYQQKSGQAPVLVIYEDTRRPSGIPERFSGSSSGTMATLTISGAQVEDEADYFCYSTDTTGTHRVFGGGTKLTVL
- Kd [1]: 0.637 nM
- koff [1]: 0.000619 s⁻¹
- kon [1]: 989000 M⁻¹ s⁻¹
- Kd [5]: 0.516 nM
- Kd [2]: 0.637 nM
